Data published in the supplement of paper PMC7877785.
± gives the uncertainty stated by the source.

Assay: self-splicing fitness, log relative to wild type (ln ratio); higher = more splicing; Tetrahymena group I intron in knt gene, E. coli kanamycin selection, DiMSum; sequences stand for … in CUCUCU…GGAGGGAAAAGUUAUCAGGCAUGCACCUGGUAGCUAGUCUUUAAACCAAUAGAUUGCAUCGGUUUAAAAGGCAAGACCGUCAAAUUGCGGGAAAGGGGUCAACAGCCGUUCAGUACCAAGUCUCAGGGGAAACUUUGAGAUGGCCUUGCAAAGGGUAUGGUAAUAAGCUGACGGACAUGGUCCUAACCACGCAGCCAAGUCCUAAGUCAACAGAUCUUCUGUUGAUAUGGAUGCAGUUCACAGACUAAAUGUCGGUCGGGGAAGAUGUAUUCUUCUCAUAAGAUAUAGUCGGACCUCUCCUUAAUGGGAGCUAGCGGAUGAAGUGAUGCAACACUGGAGCCGCUGGGAACUAAUUUGUAUGCGAAAGUAUAUUGAUUAGUUUUGGAGUACUCGUGGUCG
In short: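 Six replicate transformations of E. coli BL21(DE3) with a pET-22b(+) library were grown overnight at 37°C or 30°C. The library randomised all eight P1ex-region intron nucleotides, the intron lying in the knt kanamycin-resistance gene, and plates were LB agar with or without 25 μg/mL kanamycin plus 100 μg/mL carbenicillin, 50 μM IPTG and 0.2% rhamnose. Pooled colonies were amplicon-sequenced on an Illumina HiSeq 2500, and fitness is the DiMSum error-weighted combination of wild-type-normalised replicate fold changes, kanamycin versus none.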

Sequence	self-splicing fitness (ln) (30 °C)	self-splicing fitness (ln) (37 °C)
AGUCAGCAAUAUUACGGGUU	-0.799 ± 0.077	-0.628 ± 0.086
AGUCAGCAAUAUUACGGUCA	-0.726 ± 0.11	-0.323 ± 0.1
AGUCAGCAAUAUUACGUAAC	-1.88 ± 0.099	-1.37 ± 0.11
AGUCAGCAAUAUUACGUAAU	-1.16 ± 0.062	-0.387 ± 0.088
AGUCAGCAAUAUUACGUCAA	-2.24 ± 0.12	-1.09 ± 0.1
AGUCAGCAAUAUUACGUCAU	-0.181 ± 0.072	-0.133 ± 0.09
AGUCAGCAAUAUUACGUCGC	-1.65 ± 0.13	-1.14 ± 0.19
AGUCAGCAAUAUUACGUCGG	-0.874 ± 0.086	-1.23 ± 0.11
AGUCAGCAAUAUUACGUGUG	-2.26 ± 0.099	-1.57 ± 0.11
AGUGAGCAAUAUUACGAAAU		-2.07 ± 0.39
AGUGAGCAAUAUUACGAAGC	-4.89 ± 0.46	-1.55 ± 0.33
AGUGAGCAAUAUUACGAGAU	-3.9 ± 0.23	-1.49 ± 0.19
AGUGAGCAAUAUUACGAGGU	-3.63 ± 0.31	
AGUGAGCAAUAUUACGAUCC	-0.375 ± 0.25	-0.193 ± 0.22
AGUGAGCAAUAUUACGAUCU	-1.7 ± 0.14	-1.13 ± 0.15
AGUGAGCAAUAUUACGAUUG	-3.59 ± 0.42	-2.77 ± 0.38
AGUGAGCAAUAUUACGCAUC	-3.32 ± 0.28	-0.505 ± 0.26
AGUGAGCAAUAUUACGCAUG	-3.22 ± 0.29	-3.25 ± 0.43
AGUGAGCAAUAUUACGCCGG	-2.67 ± 0.26	-1.81 ± 0.38
AGUGAGCAAUAUUACGCGAC	-1.74 ± 0.32	-1.46 ± 0.31
AGUGAGCAAUAUUACGCUCC	-1.69 ± 0.45	
AGUGAGCAAUAUUACGGACC	-0.918 ± 0.22	-0.539 ± 0.33

Sequence	self-splicing fitness (ln) (30 °C)	self-splicing fitness (ln) (37 °C)
AGUGAGCAAUAUUACGGAUA	-2.82 ± 0.28	-0.678 ± 0.35
AGUGAGCAAUAUUACGGAUC	-2.42 ± 0.25	-1.25 ± 0.34
AGUGAGCAAUAUUACGGAUG	-3.2 ± 0.24	-3.06 ± 0.3
AGUGAGCAAUAUUACGGCGC	-0.869 ± 0.35	-0.599 ± 0.2
AGUGAGCAAUAUUACGGCUG	-2.19 ± 0.12	-0.36 ± 0.16
AGUGAGCAAUAUUACGGGAA	-2.94 ± 0.29	
AGUGAGCAAUAUUACGGGAU	-3.44 ± 0.26	-1.7 ± 0.29
AGUGAGCAAUAUUACGGGCU	-4.57 ± 0.39	-2.72 ± 0.3
AGUGAGCAAUAUUACGUAAG	-3.1 ± 0.43	-2.48 ± 0.41
AGUGAGCAAUAUUACGUAGG	-4.29 ± 0.46	
AGUGAGCAAUAUUACGUAGU	-4.14 ± 0.26	-2.82 ± 0.26
AGUGAGCAAUAUUACGUAUG		-2.56 ± 0.32
AGUGAGCAAUAUUACGUCAA	-0.971 ± 0.2	-2.79 ± 0.36
AGUGAGCAAUAUUACGUCAU	-1.29 ± 0.14	-2.29 ± 0.22
AGUGAGCAAUAUUACGUCCU	0.0407 ± 0.17	0.233 ± 0.18
AGUGAGCAAUAUUACGUGGC		-1.94 ± 0.33
AGUGAGCAAUAUUACGUUCA	-3.1 ± 0.38	-2.41 ± 0.37
AGUGAGCAAUAUUACGUUCU	-1.78 ± 0.15	-1.57 ± 0.14
AGUUAGCAAUAUUACGAACC	-1 ± 0.15	-0.401 ± 0.17
AGUUAGCAAUAUUACGACGU	0.261 ± 0.07	0.647 ± 0.083
AGUUAGCAAUAUUACGACUC	-2.36 ± 0.32	-1.83 ± 0.38
AGUUAGCAAUAUUACGAGGU	-3.43 ± 0.16	-1.55 ± 0.17
